*1 amine or outer side, *2 acyl side, *3 side chain or, on linkers, in order; H or OH if unused. Side-chain parts run from the residue outwards. The star is where a group is joined. C18 diacid = O=C(O)CCCCCCCCCCCCCCCCC(=O)*; γGlu = O=C(O)[C@H](CCC(=O)[*:2])N[*:1]; Isovaleryl = CC(C)CC(=O)*; Ahx = NCCCCCC(=O)O
T1: human NPY2 receptor (human, UniProt P49146 1-381)
T1 construct: whole, on cells; also called hNPY2-R; hNPY2R
T1 sequence (looked up): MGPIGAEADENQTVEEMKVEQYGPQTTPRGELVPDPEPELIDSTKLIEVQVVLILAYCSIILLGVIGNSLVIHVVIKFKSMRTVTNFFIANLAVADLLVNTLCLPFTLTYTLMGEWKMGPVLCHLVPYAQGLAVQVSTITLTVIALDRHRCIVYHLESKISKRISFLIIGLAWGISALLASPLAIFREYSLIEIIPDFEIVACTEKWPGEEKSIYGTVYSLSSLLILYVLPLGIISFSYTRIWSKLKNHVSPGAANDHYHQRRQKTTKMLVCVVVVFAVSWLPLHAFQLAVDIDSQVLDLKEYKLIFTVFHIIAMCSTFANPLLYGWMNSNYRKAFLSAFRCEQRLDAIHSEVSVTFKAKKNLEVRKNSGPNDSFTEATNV

B1: Compound 167 (peptide)
peptide: Isovaleryl-APAK([Ahx-γGlu-C18 diacid])PEEAAEPEEIQRYYVALRHYYNWLTRQRY-NH2
SMILES: CC[C@H](C)[C@H](NC(=O)[C@H](CCC(=O)O)NC(=O)[C@H](CCC(=O)O)NC(=O)[C@@H]1CCCN1C(=O)[C@H](CCC(=O)O)NC(=O)[C@H](C)NC(=O)[C@H](C)NC(=O)[C@H](CCC(=O)O)NC(=O)[C@H](CCC(=O)O)NC(=O)[C@@H]1CCCN1C(=O)[C@H](CCCCNC(=O)CCCCCNC(=O)CC[C@H](NC(=O)CCCCCCCCCCCCCCCCC(=O)O)C(=O)O)NC(=O)[C@H](C)NC(=O)[C@@H]1CCCN1C(=O)[C@H](C)NC(=O)CC(C)C)C(=O)N[C@@H](CCC(N)=O)C(=O)N[C@@H](CCCNC(=N)N)C(=O)N[C@@H](Cc1ccc(O)cc1)C(=O)N[C@@H](Cc1ccc(O)cc1)C(=O)N[C@H](C(=O)N[C@@H](C)C(=O)N[C@@H](CC(C)C)C(=O)N[C@@H](CCCNC(=N)N)C(=O)N[C@@H](Cc1c[nH]cn1)C(=O)N[C@@H](Cc1ccc(O)cc1)C(=O)N[C@@H](Cc1ccc(O)cc1)C(=O)N[C@@H](CC(N)=O)C(=O)N[C@@H](Cc1c[nH]c2ccccc12)C(=O)N[C@@H](CC(C)C)C(=O)N[C@H](C(=O)N[C@@H](CCCNC(=N)N)C(=O)N[C@@H](CCC(N)=O)C(=O)N[C@@H](CCCNC(=N)N)C(=O)N[C@@H](Cc1ccc(O)cc1)C(N)=O)[C@@H](C)O)C(C)C
B2: Compound 178 (peptide)
peptide: Isovaleryl-APEK([Ahx-γGlu-C18 diacid])PEAAATPEEIQRYYVALRHYYNWLTRQRY-NH2
SMILES: CC[C@H](C)[C@H](NC(=O)[C@H](CCC(=O)O)NC(=O)[C@H](CCC(=O)O)NC(=O)[C@@H]1CCCN1C(=O)[C@@H](NC(=O)[C@H](C)NC(=O)[C@H](C)NC(=O)[C@H](C)NC(=O)[C@H](CCC(=O)O)NC(=O)[C@@H]1CCCN1C(=O)[C@H](CCCCNC(=O)CCCCCNC(=O)CC[C@H](NC(=O)CCCCCCCCCCCCCCCCC(=O)O)C(=O)O)NC(=O)[C@H](CCC(=O)O)NC(=O)[C@@H]1CCCN1C(=O)[C@H](C)NC(=O)CC(C)C)[C@@H](C)O)C(=O)N[C@@H](CCC(N)=O)C(=O)N[C@@H](CCCNC(=N)N)C(=O)N[C@@H](Cc1ccc(O)cc1)C(=O)N[C@@H](Cc1ccc(O)cc1)C(=O)N[C@H](C(=O)N[C@@H](C)C(=O)N[C@@H](CC(C)C)C(=O)N[C@@H](CCCNC(=N)N)C(=O)N[C@@H](Cc1c[nH]cn1)C(=O)N[C@@H](Cc1ccc(O)cc1)C(=O)N[C@@H](Cc1ccc(O)cc1)C(=O)N[C@@H](CC(N)=O)C(=O)N[C@@H](Cc1c[nH]c2ccccc12)C(=O)N[C@@H](CC(C)C)C(=O)N[C@H](C(=O)N[C@@H](CCCNC(=N)N)C(=O)N[C@@H](CCC(N)=O)C(=O)N[C@@H](CCCNC(=N)N)C(=O)N[C@@H](Cc1ccc(O)cc1)C(N)=O)[C@@H](C)O)C(C)C
B3: Compound 177 (peptide)
peptide: Isovaleryl-APEK([Ahx-γGlu-C18 diacid])PEEDATPEELQQYYVSLRHYYNWLTRQRY-NH2
SMILES: CC(C)CC(=O)N[C@@H](C)C(=O)N1CCC[C@H]1C(=O)N[C@@H](CCC(=O)O)C(=O)N[C@@H](CCCCNC(=O)CCCCCNC(=O)CC[C@H](NC(=O)CCCCCCCCCCCCCCCCC(=O)O)C(=O)O)C(=O)N1CCC[C@H]1C(=O)N[C@@H](CCC(=O)O)C(=O)N[C@@H](CCC(=O)O)C(=O)N[C@@H](CC(=O)O)C(=O)N[C@@H](C)C(=O)N[C@H](C(=O)N1CCC[C@H]1C(=O)N[C@@H](CCC(=O)O)C(=O)N[C@@H](CCC(=O)O)C(=O)N[C@@H](CC(C)C)C(=O)N[C@@H](CCC(N)=O)C(=O)N[C@@H](CCC(N)=O)C(=O)N[C@@H](Cc1ccc(O)cc1)C(=O)N[C@@H](Cc1ccc(O)cc1)C(=O)N[C@H](C(=O)N[C@@H](CO)C(=O)N[C@@H](CC(C)C)C(=O)N[C@@H](CCCNC(=N)N)C(=O)N[C@@H](Cc1c[nH]cn1)C(=O)N[C@@H](Cc1ccc(O)cc1)C(=O)N[C@@H](Cc1ccc(O)cc1)C(=O)N[C@@H](CC(N)=O)C(=O)N[C@@H](Cc1c[nH]c2ccccc12)C(=O)N[C@@H](CC(C)C)C(=O)N[C@H](C(=O)N[C@@H](CCCNC(=N)N)C(=O)N[C@@H](CCC(N)=O)C(=O)N[C@@H](CCCNC(=N)N)C(=O)N[C@@H](Cc1ccc(O)cc1)C(N)=O)[C@@H](C)O)C(C)C)[C@@H](C)O
B4: Compound 170 (peptide)
peptide: Isovaleryl-APEK([Ahx-γGlu-C18 diacid])PEEDAAPEEIQRYYVSLRHYYNWLTRQRY-NH2
SMILES: CC[C@H](C)[C@H](NC(=O)[C@H](CCC(=O)O)NC(=O)[C@H](CCC(=O)O)NC(=O)[C@@H]1CCCN1C(=O)[C@H](C)NC(=O)[C@H](C)NC(=O)[C@H](CC(=O)O)NC(=O)[C@H](CCC(=O)O)NC(=O)[C@H](CCC(=O)O)NC(=O)[C@@H]1CCCN1C(=O)[C@H](CCCCNC(=O)CCCCCNC(=O)CC[C@H](NC(=O)CCCCCCCCCCCCCCCCC(=O)O)C(=O)O)NC(=O)[C@H](CCC(=O)O)NC(=O)[C@@H]1CCCN1C(=O)[C@H](C)NC(=O)CC(C)C)C(=O)N[C@@H](CCC(N)=O)C(=O)N[C@@H](CCCNC(=N)N)C(=O)N[C@@H](Cc1ccc(O)cc1)C(=O)N[C@@H](Cc1ccc(O)cc1)C(=O)N[C@H](C(=O)N[C@@H](CO)C(=O)N[C@@H](CC(C)C)C(=O)N[C@@H](CCCNC(=N)N)C(=O)N[C@@H](Cc1c[nH]cn1)C(=O)N[C@@H](Cc1ccc(O)cc1)C(=O)N[C@@H](Cc1ccc(O)cc1)C(=O)N[C@@H](CC(N)=O)C(=O)N[C@@H](Cc1c[nH]c2ccccc12)C(=O)N[C@@H](CC(C)C)C(=O)N[C@H](C(=O)N[C@@H](CCCNC(=N)N)C(=O)N[C@@H](CCC(N)=O)C(=O)N[C@@H](CCCNC(=N)N)C(=O)N[C@@H](Cc1ccc(O)cc1)C(N)=O)[C@@H](C)O)C(C)C
B5: Compound 169 (peptide)
peptide: Isovaleryl-APEK([Ahx-γGlu-C18 diacid])PEEDAEPEELQAYYVSLRHYYNWLTRQRY-NH2
SMILES: CC(C)CC(=O)N[C@@H](C)C(=O)N1CCC[C@H]1C(=O)N[C@@H](CCC(=O)O)C(=O)N[C@@H](CCCCNC(=O)CCCCCNC(=O)CC[C@H](NC(=O)CCCCCCCCCCCCCCCCC(=O)O)C(=O)O)C(=O)N1CCC[C@H]1C(=O)N[C@@H](CCC(=O)O)C(=O)N[C@@H](CCC(=O)O)C(=O)N[C@@H](CC(=O)O)C(=O)N[C@@H](C)C(=O)N[C@@H](CCC(=O)O)C(=O)N1CCC[C@H]1C(=O)N[C@@H](CCC(=O)O)C(=O)N[C@@H](CCC(=O)O)C(=O)N[C@@H](CC(C)C)C(=O)N[C@@H](CCC(N)=O)C(=O)N[C@@H](C)C(=O)N[C@@H](Cc1ccc(O)cc1)C(=O)N[C@@H](Cc1ccc(O)cc1)C(=O)N[C@H](C(=O)N[C@@H](CO)C(=O)N[C@@H](CC(C)C)C(=O)N[C@@H](CCCNC(=N)N)C(=O)N[C@@H](Cc1c[nH]cn1)C(=O)N[C@@H](Cc1ccc(O)cc1)C(=O)N[C@@H](Cc1ccc(O)cc1)C(=O)N[C@@H](CC(N)=O)C(=O)N[C@@H](Cc1c[nH]c2ccccc12)C(=O)N[C@@H](CC(C)C)C(=O)N[C@H](C(=O)N[C@@H](CCCNC(=N)N)C(=O)N[C@@H](CCC(N)=O)C(=O)N[C@@H](CCCNC(=N)N)C(=O)N[C@@H](Cc1ccc(O)cc1)C(N)=O)[C@@H](C)O)C(C)C
B6: Compound 171 (peptide)
peptide: Isovaleryl-APEK([Ahx-γGlu-C18 diacid])PEADASPEELQRYYVELRHYYNWLTRQRY-NH2
SMILES: CC(C)CC(=O)N[C@@H](C)C(=O)N1CCC[C@H]1C(=O)N[C@@H](CCC(=O)O)C(=O)N[C@@H](CCCCNC(=O)CCCCCNC(=O)CC[C@H](NC(=O)CCCCCCCCCCCCCCCCC(=O)O)C(=O)O)C(=O)N1CCC[C@H]1C(=O)N[C@@H](CCC(=O)O)C(=O)N[C@@H](C)C(=O)N[C@@H](CC(=O)O)C(=O)N[C@@H](C)C(=O)N[C@@H](CO)C(=O)N1CCC[C@H]1C(=O)N[C@@H](CCC(=O)O)C(=O)N[C@@H](CCC(=O)O)C(=O)N[C@@H](CC(C)C)C(=O)N[C@@H](CCC(N)=O)C(=O)N[C@@H](CCCNC(=N)N)C(=O)N[C@@H](Cc1ccc(O)cc1)C(=O)N[C@@H](Cc1ccc(O)cc1)C(=O)N[C@H](C(=O)N[C@@H](CCC(=O)O)C(=O)N[C@@H](CC(C)C)C(=O)N[C@@H](CCCNC(=N)N)C(=O)N[C@@H](Cc1c[nH]cn1)C(=O)N[C@@H](Cc1ccc(O)cc1)C(=O)N[C@@H](Cc1ccc(O)cc1)C(=O)N[C@@H](CC(N)=O)C(=O)N[C@@H](Cc1c[nH]c2ccccc12)C(=O)N[C@@H](CC(C)C)C(=O)N[C@H](C(=O)N[C@@H](CCCNC(=N)N)C(=O)N[C@@H](CCC(N)=O)C(=O)N[C@@H](CCCNC(=N)N)C(=O)N[C@@H](Cc1ccc(O)cc1)C(N)=O)[C@@H](C)O)C(C)C

Molecular target: T1, human NPY2 receptor
Test: RLB: displacement of 125I-PYY(1-36) from hNPY2R membranes

Row | Binder | Ki
1 | B1 | 4.58 nM
2 | B2 | 3.39 nM
3 | B3 | 8.65 nM
4 | B4 | 2.28 nM
5 | B5 | 5.82 nM
6 | B6 | 2.83 nM

From patent US20260015399A1 (Boehringer Ingelheim, published 2026)
